Among the data in US20060148059A1, “Salt tolerant l-myo-inositol 1-phosphate synthase and the process of obtaining the same” (priority 2002, published 2006) are Km values, retold here.

Substrate in data set [1]: O=P(O)(O)OC[C@H]1OC(O)[C@H](O)[C@@H](O)[C@@H]1O
The experiment in a line: cells, lysate or membranes named. Conditions: Line-Weaver Burk analysis, pH 7.5.

Substrate in data set [2]: NC(=O)c1ccc[n+]([C@@H]2O[C@H](COP(=O)([O-])OP(=O)(O)OC[C@H]3O[C@@H](n4cnc5c(N)ncnc54)[C@H](O)[C@@H]3O)[C@@H](O)[C@H]2O)c1
The experiment in a line: Km and Vmax of recombinant RINO1 (Biogel 0.5A purified, Line-Weaver Burk analysis). It is filed as biochemical, Oryza sativa. As to conditions: other: recombinant RINO1, expressed in E. coli BL21 (DE3), pH 7.5. The protocol:
(§1) The cDNA for RINO1 and PINO1 were subcloned into suitable cloning sites of the bacterial expression vector pET 20B (+). The resulting plasmids were introduced into the host strain E. coli BL-21 (DE3). The bacteria were grown in LB medium up to A600 of 0.5-absorbance unit and induced by 0.5 mM IPTG for 6 hours at 30° C. The bacteria were collected by centrifugation and lysed by sonication in a buffer containing 20 mM Tris-HCl, pH 7.5. 10 mM each of NH4Cl and ME, 2 mM PMSF. The lysed extracts were centrifuged and protein from both soluble and membrane fractions were analyzed by 10% SDS-PAGE according to Lammeli (Nature, 227, 660-605, 1970) followed by western blot for immunodetection. The separated proteins were blotted onto PVDF membrane and the blot was probed with rabbit anti L-myo-inositol 1-phosphate synthase antibody (1:500) raised against purified recombinant L-myo-inositol 1-phosphate synthase of Entamoeba (Lohia et al, Mol. Biochem. Parasitol. 98, 67-79, 1999) or purified cytosolic L myo-inositol 1-phosphate […] from Oryza leaves. Bound antibody was detected by the chemiluminiscence (kit from Amersham Life Sciences). […] The expressed RINO1 and PINO1 proteins were solubilized from the pellet fractions in solubilization buffer (8M urea, 0.5 M NaCl, 20 mM Tris-HCl pH 7.5, 10 mM ME, 2 mM PMSF) kept for 30 minutes at room temperature. […]

Substrate in data set [3]: NC(=O)c1ccc[n+]([C@@H]2O[C@H](COP(=O)([O-])OP(=O)(O)OC[C@H]3O[C@@H](n4cnc5c(N)ncnc54)[C@H](O)[C@@H]3O)[C@@H](O)[C@H]2O)c1
As to the kind of experiment: Km and Vmax of recombinant PINO1 (Biogel 0.5A purified, Line-Weaver Burk analysis). It counts as biochemical, Porteresia coarctata. Conditions: other: recombinant PINO1, expressed in E. coli BL21 (DE3), pH 7.5. The protocol:
as §1

B1: Oryza sativa L-myo-inositol 1-phosphate synthase RINO1, recombinant (GenBank AB012107) (Oryza sativa Japonica Group) (protein)
chain: MFIESFRVESPHVRYGAAEIESDYQYDTTELVHESHDGASRWIVRPKSVRYNFRTTTTVPKLGVMLVGWGGNNGSTLTAGVIANREGISWATKDKVQQANYYGSLTQASTIRVGSYNGEEIYAPFKSLLPMVNPDDLVFGGWDISNMNLADAMTRAKVLDIDLQKQLRPYMESMVPLPGIYDPDFIAANQGSRANNVIKGTKKEQMEQIIKDIREFKEKSKVDKVVVLWTANTERYSNVCVGLNDTMENLLASVDKNEAEISPSTLYAIACVMEGIPFINGSPQNTFVPGLIDLAIKNNCLIGGDDFKSGQTKMKSVLVDFLVGAGIKPTSIVSYNHLGNNDGMNLSAPQTFRSKEISKSNVVDDMVSSNAILYELGEHPDHVVVIKYVPYVGDSKRAMDEYTSEIFMGGKSTIVLHNTCEDSLLAAPIILDLVLLAELSTRIQLKAEGEEKFHSFHPVATILSYLTKAPLVPPGTPVVNALAKQRAMLENIMRACVGLAPENNMILEYK
notes: homotrimer
For B1, the Km (in general, the substrate concentration at which the rate is half of its maximum) in data set [1] (other: recombinant RINO1, expressed in E. coli BL21 (DE3)) turned out to be 3000 µM; in data set [2], 188 µM.

B2: Porteresia coarctata L-myo-inositol 1-phosphate synthase PINO1, recombinant (GenBank AF 412340) (Oryza coarctata) (protein)
chain: MFIESFRVESPHVRYGAAEIESEYRYDTTELVHESHDGASRWVVRPKSVQYHFRTSTTVPKLGVMLVGWGGNNGSTLTAGVIASREGISWATKDKVQQANYYGSLTQASTIRVGSYNGEEIYAPFKSLLPMVNPDDLVFGGWDISNMNLADAMTRAKVLDIDLQKQLRPYMESWCLSLASMIPTSSPLTRDPARTMSSREPRRSRWGRSSKDIREFKENNKMDKAVVLWTANTERYNNCLCLGLMTNGKPSASVDRNQAEISPSTLYCHCLASLEGVRSITGALKKKSWPGIDDLAIKKKLPDPGGLIQKRGKPKKKTGLVDFLMGAGIKPTSIVSYNHLGNNDGTNLSAPQTFRSKEISKSSVVDDMVSSNAILYEPGEHPDHVVVIKYVPYVGDSKRAMDEYTSEIFMGGKNTIVLHNTCEDSLLAAPIILDLVLLAELSTRIQLKGEGEEKFHSFHPVATILSYLTKAPLVPPGTPVVNALAKQRAMLENIMRACVGLAPENNMILEYK
notes: homotrimer
For the protein B2, the Km in data set [1] (other: recombinant PINO1, expressed in E. coli BL21 (DE3)) stood at 2500 µM; in data set [3], 166 µM.
